For this data set the following is noted: Bacillus subtilis (strain 168), pH 7, CD, transition: 2, reversible: yes, whole UniProt chain shown.

The values that follow come from FireProtDB (doi:10.1016/j.bpj.2010.04.076).

B1: Adenylate kinase wild type, P16304 (protein)
chain: MNLVLMGLPGAGKGTQGERIVEDYGIPHISTGDMFRAAMKEETPLGLEAKSYIDKGELVPDEVTIGIVKERLGKDDCERGFLLDGFPRTVAQAEALEEILEEYGKPIDYVINIEVDKDVLMERLTGRRICSVCGTTYHLVFNPPKTPGICDKDGGELYQRADDNEETVSKRLEVNMKQTQPLLDFYSEKGYLANVNGQQDIQDVYADVKDLLGGLKK
In general, Tm refers to the temperature at the midpoint of the melting transition. Consider B1, for which the unfolding free energy (20 °C, GdnHCl, Phosphate buffer 10mM) is 3.34 kcal/mol. Also, for the setting “Thermal, KH2PO4 10mM”, the midpoint of thermal melting (Tm) worked out at 48.4 °C.
